B1: heparin-binding EGF-like growth factor (HB-EGF), human recombinant (ligand, UniProt Q99075 63-148, looked up)
chain: DLQEADLDLLRVTLSSKPQALATPNKEEHGKRKKKGKGLGKKRDPCLRKYKDFCIHGECKYVKELRAPSCICHPGYHGERCHGLSL
B2: heparin-binding growth-associated molecule (HB-GAM; pleiotrophin) (ligand, UniProt P63090 33-168, looked up)
chain: GKKEKPEKKVKKSDCGEWQWSVCVPTSGDCGLGTREGTRTGAECKQTMKTQRCKIPCNWKKQFGAECKYQFQAWGECDLNTALKTRTGSLKRALHNADCQKTVTISKPCGKLTKPKPQAESKKKKKEGKKQEKMLD

Molecular target: N-syndecan ectodomain IgG fusion protein (UniProt P33671 45-387, glycosylated (proteoglycan fragment with heparan sulfate chains))
Experiment: ELISA

Sequence of N-syndecan ectodomain IgG fusion protein (P33671 45-387): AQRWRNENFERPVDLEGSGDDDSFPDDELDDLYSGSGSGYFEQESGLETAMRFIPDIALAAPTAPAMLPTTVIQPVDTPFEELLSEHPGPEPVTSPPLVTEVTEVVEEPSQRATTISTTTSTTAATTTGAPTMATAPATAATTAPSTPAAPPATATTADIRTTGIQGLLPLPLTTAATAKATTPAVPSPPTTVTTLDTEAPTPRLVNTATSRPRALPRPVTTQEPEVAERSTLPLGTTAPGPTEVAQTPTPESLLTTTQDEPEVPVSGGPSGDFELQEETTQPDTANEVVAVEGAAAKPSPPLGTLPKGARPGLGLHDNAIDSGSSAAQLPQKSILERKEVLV

Binder | Kd [nM]
B1 | 15
B2 | 12

Reference: article PMC2064262 (The Journal of Cell Biology, 2006)
